Laboratory results: patent US20220332804A1 (CSL INNOVATION, published 2022)

Legend:
Assay in all cases: SPR; KD relative to WT C2;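 also: biacore SPR at 37 °C, anti-C2 mAbs captured on an anti-human IgG chip, alanine or serine C2 surface mutants tested, KD from 1:1 fit compared with wild-type C2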
[1] = target: T1, human C2 D419A (human, UniProt P06681 21-752)
T1 sequence: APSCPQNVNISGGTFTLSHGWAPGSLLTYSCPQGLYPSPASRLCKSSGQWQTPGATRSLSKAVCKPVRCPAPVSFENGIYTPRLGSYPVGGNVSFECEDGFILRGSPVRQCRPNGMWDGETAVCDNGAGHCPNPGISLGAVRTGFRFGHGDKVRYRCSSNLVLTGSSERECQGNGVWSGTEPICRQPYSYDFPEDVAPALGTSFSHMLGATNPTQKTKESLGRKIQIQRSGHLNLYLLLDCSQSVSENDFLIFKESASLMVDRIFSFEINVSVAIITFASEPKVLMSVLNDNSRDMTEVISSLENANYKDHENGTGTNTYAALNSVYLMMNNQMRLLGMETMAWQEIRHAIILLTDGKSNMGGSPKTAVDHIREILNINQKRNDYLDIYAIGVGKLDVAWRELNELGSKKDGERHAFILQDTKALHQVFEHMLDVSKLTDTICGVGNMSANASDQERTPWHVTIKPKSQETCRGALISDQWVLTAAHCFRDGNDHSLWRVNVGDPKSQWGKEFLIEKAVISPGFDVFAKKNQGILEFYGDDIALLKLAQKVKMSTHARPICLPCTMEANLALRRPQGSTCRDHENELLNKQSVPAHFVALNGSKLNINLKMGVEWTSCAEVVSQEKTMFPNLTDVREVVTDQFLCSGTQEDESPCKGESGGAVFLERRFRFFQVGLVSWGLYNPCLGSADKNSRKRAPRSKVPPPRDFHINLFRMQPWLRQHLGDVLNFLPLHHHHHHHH

[2] = target: T2, human C2 R688A (human, UniProt P06681 21-752)
T2 sequence: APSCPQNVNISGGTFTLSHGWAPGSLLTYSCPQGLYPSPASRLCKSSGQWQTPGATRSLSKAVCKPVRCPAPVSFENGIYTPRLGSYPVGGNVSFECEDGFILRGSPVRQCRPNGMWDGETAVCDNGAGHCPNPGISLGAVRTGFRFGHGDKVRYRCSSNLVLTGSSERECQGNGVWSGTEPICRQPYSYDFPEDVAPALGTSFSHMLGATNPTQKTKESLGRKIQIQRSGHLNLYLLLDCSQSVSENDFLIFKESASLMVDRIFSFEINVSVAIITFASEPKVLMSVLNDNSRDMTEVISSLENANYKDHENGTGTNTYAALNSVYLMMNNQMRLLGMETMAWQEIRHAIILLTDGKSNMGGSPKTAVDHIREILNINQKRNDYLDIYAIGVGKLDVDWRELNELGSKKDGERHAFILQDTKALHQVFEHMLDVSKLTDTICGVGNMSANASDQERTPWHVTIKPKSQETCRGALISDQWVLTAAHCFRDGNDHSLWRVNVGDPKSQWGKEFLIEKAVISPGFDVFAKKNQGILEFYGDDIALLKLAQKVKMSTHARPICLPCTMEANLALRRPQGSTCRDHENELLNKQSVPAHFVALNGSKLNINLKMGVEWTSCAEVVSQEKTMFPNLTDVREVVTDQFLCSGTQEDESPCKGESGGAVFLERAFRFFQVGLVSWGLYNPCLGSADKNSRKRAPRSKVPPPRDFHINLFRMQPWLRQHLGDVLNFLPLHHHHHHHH

[3] = target: T3, human C2 E476A (human, UniProt P06681 21-752)
T3 sequence: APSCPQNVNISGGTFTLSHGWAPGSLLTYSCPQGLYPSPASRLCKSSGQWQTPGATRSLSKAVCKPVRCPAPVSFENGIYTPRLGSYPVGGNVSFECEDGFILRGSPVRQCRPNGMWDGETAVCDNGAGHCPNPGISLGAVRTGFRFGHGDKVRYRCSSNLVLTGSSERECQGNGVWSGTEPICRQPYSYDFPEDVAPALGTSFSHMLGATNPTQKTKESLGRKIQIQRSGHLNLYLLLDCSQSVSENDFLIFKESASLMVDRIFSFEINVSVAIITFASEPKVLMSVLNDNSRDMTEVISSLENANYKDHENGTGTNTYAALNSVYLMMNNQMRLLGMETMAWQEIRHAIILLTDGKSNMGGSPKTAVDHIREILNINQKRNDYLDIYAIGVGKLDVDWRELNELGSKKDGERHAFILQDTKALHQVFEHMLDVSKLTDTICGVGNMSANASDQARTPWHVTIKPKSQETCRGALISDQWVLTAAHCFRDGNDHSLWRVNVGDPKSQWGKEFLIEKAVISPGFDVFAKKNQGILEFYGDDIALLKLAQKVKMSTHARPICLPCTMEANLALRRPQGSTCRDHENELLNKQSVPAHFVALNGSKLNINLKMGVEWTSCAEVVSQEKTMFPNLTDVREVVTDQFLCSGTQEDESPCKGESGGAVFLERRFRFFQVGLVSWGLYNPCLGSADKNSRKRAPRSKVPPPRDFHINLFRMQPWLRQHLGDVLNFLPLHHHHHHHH

[4] = target: T4, human C2 G427A (human, UniProt P06681 21-752)
T4 sequence: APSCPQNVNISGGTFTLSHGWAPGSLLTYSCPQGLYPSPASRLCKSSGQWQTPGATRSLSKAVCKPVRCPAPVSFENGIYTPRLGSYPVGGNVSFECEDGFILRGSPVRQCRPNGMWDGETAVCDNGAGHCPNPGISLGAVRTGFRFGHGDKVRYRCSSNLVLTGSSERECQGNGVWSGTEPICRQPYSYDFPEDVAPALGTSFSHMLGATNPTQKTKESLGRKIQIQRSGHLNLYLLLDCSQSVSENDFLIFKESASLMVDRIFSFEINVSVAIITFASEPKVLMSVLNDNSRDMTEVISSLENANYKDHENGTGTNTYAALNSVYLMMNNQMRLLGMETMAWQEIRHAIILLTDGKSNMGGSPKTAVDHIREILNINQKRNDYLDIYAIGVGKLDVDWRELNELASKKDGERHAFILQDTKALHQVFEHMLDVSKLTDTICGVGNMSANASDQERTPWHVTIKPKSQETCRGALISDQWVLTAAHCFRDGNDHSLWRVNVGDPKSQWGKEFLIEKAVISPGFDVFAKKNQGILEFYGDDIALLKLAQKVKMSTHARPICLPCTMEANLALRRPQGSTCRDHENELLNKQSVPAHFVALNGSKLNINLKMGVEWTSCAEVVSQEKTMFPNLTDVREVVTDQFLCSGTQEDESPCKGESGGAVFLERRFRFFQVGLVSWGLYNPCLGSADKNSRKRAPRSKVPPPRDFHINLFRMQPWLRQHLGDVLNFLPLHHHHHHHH

- Fold diff [1]: 2 fold
- Fold diff [2]: 3 fold
- Fold diff [3]: 2 fold
- Fold diff [4]: 0 fold
B1: RF16-214 (antibody, V domains shown)
VH: EVQLLESGGGLVQPGGSLRLSCAASGFTFSWYQMMWVRQAPGKGLEWVSRIYPSGGGTAYADSVKGRFTISRDNSKNTLYLQMNSLRAEDTAVYYCARDAGYGDNWGQGTLVTVSS
VL: QSALTQPPSVSVSPGQTASITCSGDKLGEKYASWYQQKAGQSPVMVIYQDRKRPSGIPERFSGSNSGNTATLTISGTQAMDEADYYCQAWDTRAVVFGGGTKLTVLG
